Data as given in US20020151484A1 (HYBRIGENICS, published 2002).

Tests used:
Assay in all cases: yeast two-hybrid, mating, His3/LacZ reporters
[1] = biological target: T1, Bait polypeptide of SEQ ID No 87, NS3 (100%), HCV strain H77 nt 4238-4857 (hepatitis C virus strain H77, UniProt P27958 1300-1504)
T1 construct: also called Bait NS3 (100%)
T1 chain: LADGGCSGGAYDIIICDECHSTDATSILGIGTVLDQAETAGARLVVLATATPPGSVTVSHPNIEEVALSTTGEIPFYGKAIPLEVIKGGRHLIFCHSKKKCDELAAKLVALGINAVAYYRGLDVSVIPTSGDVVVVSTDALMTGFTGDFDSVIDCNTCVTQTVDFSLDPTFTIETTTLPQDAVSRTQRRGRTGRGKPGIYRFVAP

[2] = biological target: T2, Bait polypeptide of SEQ ID No 78, Core (100%), HCV strain H77 nt 342-683 (hepatitis C virus strain H77, UniProt P27958 1-113)
T2 construct: also called Bait Core (100%)
T2 sequence: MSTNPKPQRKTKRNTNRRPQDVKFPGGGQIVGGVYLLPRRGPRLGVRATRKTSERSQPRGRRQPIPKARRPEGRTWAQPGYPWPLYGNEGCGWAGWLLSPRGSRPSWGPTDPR

[3] = biological target: T3, Bait polypeptide of SEQ ID No 101, NS4B (9%)/NS5A (90%), HCV strain H77 nt 6188-6939 (hepatitis C virus strain H77, UniProt P27958 1950-2198)
T3 construct: also called Bait NS4B (9%)/NS5A (90%)
T3 chain: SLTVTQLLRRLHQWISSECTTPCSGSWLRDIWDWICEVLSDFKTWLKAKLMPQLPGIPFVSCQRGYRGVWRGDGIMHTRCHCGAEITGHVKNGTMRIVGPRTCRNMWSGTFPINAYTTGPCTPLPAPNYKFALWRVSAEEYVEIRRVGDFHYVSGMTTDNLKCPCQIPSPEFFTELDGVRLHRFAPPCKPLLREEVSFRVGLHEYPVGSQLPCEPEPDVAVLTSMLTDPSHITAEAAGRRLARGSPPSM

[4] = biological target: T4, Bait polypeptide of SEQ ID No 90, NS3 (100%), HCV strain H77 nt 4838-5230 (hepatitis C virus strain H77, UniProt P26664 1500-1628)
T4 construct: also called Bait NS3 (100%)
T4 chain: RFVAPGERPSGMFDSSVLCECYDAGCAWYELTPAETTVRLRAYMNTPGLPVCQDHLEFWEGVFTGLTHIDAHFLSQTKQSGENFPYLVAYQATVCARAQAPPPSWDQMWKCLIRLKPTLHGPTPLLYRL

[5] = biological target: T5, Bait polypeptide of SEQ ID No 77, Core (87%), HCV strain H77 nt 302-614 (hepatitis C virus strain H77)
T5 construct: also called Bait Core (87%)
T5 chain: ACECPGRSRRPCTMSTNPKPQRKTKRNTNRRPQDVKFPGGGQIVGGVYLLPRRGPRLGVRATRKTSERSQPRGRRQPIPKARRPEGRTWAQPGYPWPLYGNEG

[6] = biological target: T6, Bait polypeptide of SEQ ID No 100, NS4B (8%)/NS5A (91%), HCV strain H77 nt 6182-7034 (hepatitis C virus strain H77, UniProt P27958 1948-2230)
T6 construct: also called Bait NS4B (8%)/NS5A (91%)
T6 chain: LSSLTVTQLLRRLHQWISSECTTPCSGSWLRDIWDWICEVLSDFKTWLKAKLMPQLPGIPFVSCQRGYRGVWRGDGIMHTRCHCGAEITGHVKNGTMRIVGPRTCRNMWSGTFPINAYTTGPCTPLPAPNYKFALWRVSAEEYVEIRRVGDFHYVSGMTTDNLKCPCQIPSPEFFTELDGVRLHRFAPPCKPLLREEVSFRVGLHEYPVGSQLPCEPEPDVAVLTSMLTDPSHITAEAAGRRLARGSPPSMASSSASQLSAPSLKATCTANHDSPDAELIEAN

[7] = biological target: T7, Bait polypeptide of SEQ ID No 95, NS4B (55%)/NS5A (44%), HCV strain H77 nt 5882-6562 (hepatitis C virus strain H77, UniProt P26664 1848-2072)
T7 construct: also called Bait NS4B (55%)/NS5A (44%)
T7 chain: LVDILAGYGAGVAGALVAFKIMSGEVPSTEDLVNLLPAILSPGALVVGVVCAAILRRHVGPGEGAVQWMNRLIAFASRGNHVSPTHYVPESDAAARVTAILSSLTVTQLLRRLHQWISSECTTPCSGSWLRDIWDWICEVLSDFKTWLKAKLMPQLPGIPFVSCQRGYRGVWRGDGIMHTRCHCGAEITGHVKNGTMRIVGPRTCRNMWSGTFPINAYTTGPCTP

[8] = biological target: T8, Bait polypeptide of SEQ ID No 89, NS3 (100%), HCV strain H77 nt 4691-5168 (hepatitis C virus strain H77, UniProt P26664 1451-1608)
T8 construct: also called Bait NS3 (100%)
T8 chain: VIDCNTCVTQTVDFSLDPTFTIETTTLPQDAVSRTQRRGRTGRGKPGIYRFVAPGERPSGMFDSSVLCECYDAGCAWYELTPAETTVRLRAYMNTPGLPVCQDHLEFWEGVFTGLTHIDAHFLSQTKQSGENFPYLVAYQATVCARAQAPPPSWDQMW

[9] = biological target: T9, Bait polypeptide of SEQ ID No 97, NS4B (100%), HCV strain H77 nt 6011-6177 (hepatitis C virus strain H77, UniProt O92972 1891-1944)
T9 construct: also called Bait NS4B (100%)
T9 sequence: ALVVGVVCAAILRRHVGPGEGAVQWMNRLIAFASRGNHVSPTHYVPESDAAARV

[10] = biological target: T10, Bait polypeptide of SEQ ID No 93, NS4B (86%)/NS5A (13%), HCV strain H77 nt 5717-6344 (hepatitis C virus strain H77, UniProt P26664 1793-2000)
T10 construct: also called Bait NS4B (86%)/NS5A (13%)
T10 chain: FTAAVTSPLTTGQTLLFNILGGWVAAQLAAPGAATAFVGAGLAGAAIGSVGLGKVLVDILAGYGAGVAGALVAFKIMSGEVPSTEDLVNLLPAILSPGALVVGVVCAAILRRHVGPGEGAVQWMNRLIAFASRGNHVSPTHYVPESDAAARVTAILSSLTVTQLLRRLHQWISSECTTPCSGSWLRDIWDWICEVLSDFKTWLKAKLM

[11] = biological target: T11, Bait polypeptide of SEQ ID No 96, NS4B (82%)/NS5A(17%), HCV strain H77 nt 5897-6335 (hepatitis C virus strain H77, UniProt P26664 1853-1997)
T11 construct: also called Bait NS4B (82%)/NS5A(17%)
T11 sequence: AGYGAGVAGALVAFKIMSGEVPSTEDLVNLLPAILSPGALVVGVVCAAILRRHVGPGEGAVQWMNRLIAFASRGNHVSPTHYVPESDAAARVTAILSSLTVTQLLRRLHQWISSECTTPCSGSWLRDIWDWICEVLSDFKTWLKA

[12] = biological target: T12, SID polypeptide of SEQ ID No 23, NS4B (100%), HCV strain H77 nt 5879-6072 (hepatitis C virus strain H77, UniProt Q913V3 1847-1909)
T12 construct: Intersection of yeast two-hybrid prey fragments; also called SID NS4B (100%)
T12 sequence: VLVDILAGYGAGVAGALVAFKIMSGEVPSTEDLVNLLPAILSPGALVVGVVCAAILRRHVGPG

[13] = biological target: T13, Bait polypeptide of SEQ ID No 102, NS5A (100%), HCV strain H77 nt 6317-6576 (hepatitis C virus strain H77, UniProt P26664 1993-2077)
T13 construct: also called Bait NS5A (100%)
T13 chain: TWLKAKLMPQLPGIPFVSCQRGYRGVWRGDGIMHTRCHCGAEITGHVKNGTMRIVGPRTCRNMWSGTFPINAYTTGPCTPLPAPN

[14] = biological target: T14, SID polypeptide of SEQ ID No 16, NS4B (100%), HCV strain H77 nt 5918-6154 (hepatitis C virus strain H77, UniProt P26664 1860-1936)
T14 construct: Intersection of yeast two-hybrid prey fragments; also called SID NS4B (100%)
T14 sequence: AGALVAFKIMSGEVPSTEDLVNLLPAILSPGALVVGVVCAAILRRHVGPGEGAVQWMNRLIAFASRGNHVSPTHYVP

[15] = biological target: T15, SID polypeptide of SEQ ID No 28, NS5A (100%), HCV strain H77 nt 6557-6721 (hepatitis C virus strain H77, UniProt P27958 2073-2125)
T15 construct: Intersection of yeast two-hybrid prey fragments; also called SID NS5A (100%)
T15 sequence: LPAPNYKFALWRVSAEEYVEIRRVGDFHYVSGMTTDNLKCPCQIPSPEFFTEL

B1: SID polypeptide of SEQ ID No 12, NS5B (100%), HCV strain H77 nt 7979-8109 (other)
chain: not shown
notes: Intersection of yeast two-hybrid prey fragments; also called SID NS5B (100%)
B1: binds [1].

B2: SID polypeptide of SEQ ID No 2, NS3 (100%), HCV strain H77 nt 4814-4922 (other)
chain: GRGKPGIYRFVAPGERPSGMFDSSVLCECYDAGCA
notes: Intersection of yeast two-hybrid prey fragments; also called SID NS3 (100%)
B2: binds [2].

B3: SID polypeptide of SEQ ID No 26, NS4B (70%)/NS5A (28%), HCV strain H77 nt 6176-6291 (other)
chain: AILSSLTVTQLLRRLHQWISSECTTPCSGSWLRDIWD
notes: Intersection of yeast two-hybrid prey fragments; also called SID NS4B (70%)/NS5A (28%)
B3: binds [3].

B4: SID polypeptide of SEQ ID No 15, E2 (100%), HCV strain H77 nt 1871-1968 (other)
chain: PSPVVVGTTDRSGAPTYSWGANDTDVFVLNN
notes: Intersection of yeast two-hybrid prey fragments; also called SID E2 (100%)
B4: binds [4].

B5: SID polypeptide of SEQ ID No 1, Core (100%), HCV strain H77 nt 446-600 (other)
chain: LLPRRGPRLGVRATRKTSERSQPRGRRQPIPKARRPEGRTWAQPGYPWPL
notes: Intersection of yeast two-hybrid prey fragments; also called SID Core (100%)
B5: binds [5].

B6: SID polypeptide of SEQ ID No 25, E1 (100%), HCV strain H77 nt 1226-1458 (other)
chain: RRHWTTQDCNCSIYPGHITGHRMAWDMMMNWSPTAALVVAQLLRIPQAIMDMIAGAHWGVLAGIAYFSMVGNWAKV
notes: Intersection of yeast two-hybrid prey fragments; also called SID E1 (100%)
B6: binds [6].

B7: SID polypeptide of SEQ ID No 20, NS5B (100%), HCV strain H77 nt 9083-9222 (other)
chain: not shown
notes: as for B1
B7: binds [7].

B8: SID polypeptide of SEQ ID No 14, E2 (100%), HCV strain H77 nt 1784-1888 (other)
chain: ERPYCWHYPPRPCGIVPAKSVCGPVYCFTPSPV
notes: as for B4
B8: binds [8].

B9: SID polypeptide of SEQ ID No 22, E2 (100%), HCV strain H77 nt 1823-1955 (other)
chain: GIVPAKSVCGPVYCFTPSPVVVGTTDRSGAPTYSWGANDTDVF
notes: as for B4
B9: binds [9].

B10: SID polypeptide of SEQ ID No 18, NS4B (53%)/NS5A (46%), HCV strain H77 nt 6197-6310 (other)
chain: VTQLLRRLHQWISSECTTPCSGSWLRDIWDWICEVL
notes: Intersection of yeast two-hybrid prey fragments; also called SID NS4B (53%)/NS5A (46%)
B10: binds [10].

B11: SID polypeptide of SEQ ID No 21, NS4B (100%), HCV strain H77 nt 5819-6080 (other)
chain: TAFVGAGLAGAAIGSVGLGKVLVDILAGYGAGVAGALVAFKIMSGEVPSTEDLVNLLPAILSPGALVVGVVCAAILRRHVGPGEGA
notes: Intersection of yeast two-hybrid prey fragments; also called SID NS4B (100%)
B11: binds [11].

B12: Bait polypeptide of SEQ ID No 98, NS4B (30%)/NS5A (69%), HCV strain H77 nt 6107-6605 (other)
chain: ASRGNHVSPTHYVPESDAAARVTAILSSLTVTQLLRRLHQWISSECTTPCSGSWLRDIWDWICEVLSDFKTWLKAKLMPQLPGIPFVSCQRGYRGVWRGDGIMHTRCHCGAEITGHVKNGTMRIVGPRTCRNMWSGTFPINAYTTGPCTPLPAPNYKFALWRVSA
notes: also called Bait NS4B (30%)/NS5A (69%)
B12: binds [12].

B13: SID polypeptide of SEQ ID No 27, NS3 (100%), HCV strain H77 nt 4784-4928 (other)
chain: VSRTQRRGRTGRGKPGIYRFVAPGERPSGMFDSSVLCECYDAGCAWY
notes: as for B2
B13: binds [13].

B14: SID polypeptide of SEQ ID No 3, Core (100%), HCV strain H77 nt 380-616 (other)
chain: NTNRRPQDVKFPGGGQIVGGVYLLPRRGPRLGVRATRKTSERSQPRGRRQPIPKARRPEGRTWAQPGYPWPLYGNEG
notes: as for B5
B14: binds [2].

B15: Bait polypeptide of SEQ ID No 91, NS3 (1%)/NS4A (98%), HCV strain H77 nt 5310-5467 (other)
chain: TSTWVLVGGVLAALAAYCLSTGCVVIVGRIVLSGKPAIIPDREVLYQEFDE
notes: also called Bait NS3 (1%)/NS4 A (98%)
B15: binds [14].

B16: Bait polypeptide of SEQ ID No 103, NS5A (100%), HCV strain H77 nt 6440-6727 (other)
chain: EITGHVKNGTMRIVGPRTCRNMWSGTFPINAYTTGPCTPLPAPNYKFALWRVSAEEYVEIRRVGDFHYVSGMTTDNLKCPCQIPSPEFFTELDG
notes: also called Bait NS5A (100%)
B16: binds [15].
